In patent publication US20220196651A1 (ALX ONCOLOGY, published 2022):

Molecular target: Drug A
Experiment: cell-based or functional assay

B1: anti-SIRP multimer F (antibody, mouse IgG1, N297A, V domains shown)
VH: DVQLVESGGGVVRPGESLRLSCAASGFTFSSYAMSWVRQAPGKGLEWLAGISAGGSDTYYIDSVKGRFTISRDNPKNSLYLQMSSLTAEDTAVYYCARETWNHLFDYWGLGTLVTVSS
VL: ALTQPASVSANPGETVKITCSGGDYYSTYYAWYQQKSPGSAPVTVIHSDDKRPSDIPSRFSGSASGSAATLIITGVRVEDEAVYYCGGYDGRTYINTFGAGTTLTVLG
  molar ratio to Drug A at which interference was mitigated, SPRCA: ≥ 1.25 x molar ratio to Drug A

B2: anti-SIRP multimer D (antibody, V domains shown)
VH: DVQLVESGGGVVRPGESLRLSCAASGFTFSSNAMSWVRQAPGKGLEWLAGISAGGSDTYYPASVKGRFTISRDNSKNTLYLQMNTLTAEDTAVYYCARETWNHLFDYWGLGTLVTVSS
VL: ALTQPASVSANPGETVKIACSGGDYYSYYYGWYQQKAPGSALVTVIYSDDKRPSDIPSRFSGSASGSTATLTITGVRAEDEAVYYCGGYDYSTYANAFGAGTTLTVL
  molar ratio to Drug A (130 nM) at which no agglutination was observed, IAT tube assay: 2.5 x molar ratio to Drug A
  molar ratio to Drug A (130 nM) at which no interference was observed, SPRCA: ≥ 0.63 x molar ratio to Drug A

B3: anti-SIRP multimer G (antibody, mouse IgG2a)
heavy: DVQLVESGGGVVRPGESLRLSCAASGFTFSSNAMSWVRQAPGKGLEWLAGISAGGSDTYYPASVKGRFTISRDNSKNTLYLQMNTLTAEDTAVYYCARETWNHLFDYWGLGTLVTVSSAKTTAPSVYPLAPVCGDTTGSSVTLGCLVKGYFPEPVTLTWNSGSLSSGVHTFPAVLQSDLYTLSSSVTVTSSTWPSQSITCNVAHPASSTKVDKKIEPRGPTIKPCPPCKCPAPNLLGGPSVFIFPPKIKDVLMISLSPIVTCVVVDVSEDDPDVQISWFVNNVEVHTAQTQTHREDYNSTLRVVSALPIQHQDWMSGKEFKCKVNNKDLPAPIERTISKPKGSVRAPQVYVLPPPEEEMTKKQVTLTCMVTDFMPEDIYVEWTNNGKTELNYKNTEPVLDSDGSYFMYSKLRVEKKNWVERNSYSCSVVHEGLHNHHTTKSFSRTPG
light: ALTQPASVSANPGETVKIACSGGDYYSYYYGWYQQKAPGSALVTVIYSDDKRPSDIPSRFSGSASGSTATLTITGVRAEDEAVYYCGGYDYSTYANAFGAGTTLTVLGQPKSSPSVTLFPPSSEELETNKATLVCTITDFYPGVVTVDWKVDGTPVTQGMETTQPSKQSNNKYMASSYLTLTARAWERHSSYSCQVTHEGHTVEKSLSRADCS
  molar excess of Multimer G that mitigated interference, gel card, Drug A 1000 µg/mL: 4 fold molar excess relative to Drug A
  molar excess of Multimer G that mitigated interference, gel card, Drug A 2000 µg/mL: 6 fold molar excess relative to Drug A
  molar excess of Multimer G that mitigated interference, gel card, Drug A between 0.1 and 100 (printed ng/mL): 3 fold molar excess relative to Drug A

B4: anti-SIRP multimer E (antibody, mouse IgG1, N297A)
heavy: DVQLVESGGGVVRPGESLRLSCAASGFTFSSNAMSWVRQAPGKGLEWLAGISAGGSDTYYPASVKGRFTISRDNSKNTLYLQMNTLTAEDTAVYYCARETWNHLFDYWGLGTLVTVSSAKTTPPSVYPLAPGSAAQTNSMVTLGCLVKGYFPEPVTVTWNSGSLSSGVHTFPAVLQSDLYTLSSSVTVPSSTWPSETVTCNVAHPASSTKVDKKIVPRDCGCKPCICTVPEVSSVFIFPPKPKDVLTITLTPKVTCVVVDISKDDPEVQFSWFVDDVEVHTAQTQPREEQFASTFRSVSELPIMHQDWLNGKEFKCRVNSAAFPAPIEKTISKTKGRPKAPQVYTIPPPKEQMAKDKVSLTCMITDFFPEDITVEWQWNGQPAENYKNTQPIMDTDGSYFIYSKLNVQKSNWEAGNTFTCSVLHEGLHNHHTEKSLSHSPG
light: ALTQPASVSANPGETVKIACSGGDYYSYYYGWYQQKAPGSALVTVIYSDDKRPSDIPSRFSGSASGSTATLTITGVRAEDEAVYYCGGYDYSTYANAFGAGTTLTVLGQPKSSPSVTLFPPSSEELETNKATLVCTITDFYPGVVTVDWKVDGTPVTQGMETTQPSKQSNNKYMASSYLTLTARAWERHSSYSCQVTHEGHTVEKSLSRADCS
  molar ratio to Drug A at which interference was mitigated, SPRCA: ≥ 1.25 x molar ratio to Drug A
